These results are taken from US11241502B2, “Stable compositions of pegylated carfilzomib compounds” (AMGEN INC., priority 2017, dated 2022).

Series [1] has as its system human colorectal adenocarcinoma cancer cell. In words: mouse xenograft model of human colorectal adenocarcinoma. As to conditions: once-weekly intravenous dosing; Example 13 200 mpk or 150 rising to 250 mpk after 3 week; CFZ-captisol 5 mpk; within 19 days of the first dose. In general terms: Xenograft models place foreign cells or tissue in a host animal.
Series [2] in a line: reverse phase assay of main API peak (integrity of the molecule). Format: physicochemical. As to the method: In order to identify stable formulations of PEG-CFZ, various formulations were made wherein the desired pegylated carfilzomib compound (API) was dissolve in experimental compositions of excipients, and the stability and quantity of the intact, non-degraded API was monitored and measured in the frozen state (−20° C. or below). Formulations of API was also prepared and tested to determine the ability of each exemplary formulation to provide adequate stability in the liquid state to be suitable for clinical and commercial administration. Here, these formulations were stored at least 8 hours at room temperature and 2 days at a temperatures ranging from 2-8° C. All formulations that were tested contained desired API compounds at 1 mg/mL concentrations.
For each formulation, the stability of the API was tested using three observable and/or measurable characteristics, as follows: • 1. Integrity of the molecule, as assessed by the reverse phase assay; • 2. Clarity of the solution, via visual assessment; and • 3. Concentration of the API material in the solution, as assessed by material recovery after centrifugation Results
FIG. 2 illustrates results of similar measurements taken with the same formulations prepared with exemplary pegylated carfilzomib compound no. 39 instead of example 26. API material recovery is similarly shown in red and percent main API peak at To and T3, as measured by the same reverse phase assay, after storage at 25° C. for 3 days, is shown. Solutions for temperature and time storage conditions were generally prepared as follows—CFZ API was dissolved in formulation buffer by stirring at room temperature for a period of 5 minutes until complete dissolution. Samples were then sterile filtered using 0.2 micron PES filters under aseptic conditions into 3 cc vials, using a 1 ml fill. […]
The percent recovery of the exemplary pegylated carfilomib compounds were measured as a function of reverse phase assays for the peak(s) representing the active molecule/compound. The percent was determined based on the area under the curve, as described below. The reverse phase assays were conducted as follows—CFZ samples were analyzed by reverse phase using a Phenomenex Gemini C18, 50×4.6 mm, 3 micron particle size column with a 47 minute HPLC method. […] Main peak percentage was determined by taking Area Under the Curve integration. […] The concentration of each unknown sample was calculated using the equation of the trend-line generated from this calibration curve by plugging in the total integrated area.
For each exemplary formulation, the stability of the API was tested or measured by six different criteria or methods, as follows: • 1. Integrity of the molecule, as assessed by the reverse phase assay; • 2. […]

For series [3] the following is noted: in humans; cited from earlier work.

For the compound “4-((4S,7S,10S,13S)-10-Benzyl-7-isobutyl-15-methyl-13-((R)-2-methyloxirane-2-carbonyl)-2,5,8,11-tetraoxo-4-phenethyl-3,6,9,12-tetraazahexadecyl)-4-(3-((1-(PEG20K-4-Arm)-1H-1,2,3-triazol-4-yl)methoxy)-4-(pivaloyloxy)benzyl)morpholin-4-ium Formate [Example 13]”, in series [1], the “tumor growth compared to vehicle control” value is given as “significant attenuation of tumor growth”.
Consider “4-((4S,7S,10S,13S)-10-Benzyl-7-isobutyl-15-methyl-13-((R)-2-methyloxirane-2-carbonyl)-2,5,8,11-tetraoxo-4-phenethyl-3,6,9,12-tetraazahexadecyl)-4-(4-(isobutyryloxy)-3-((PEG5K-imino)methyl)benzyl)morpholin-4-ium Methanesulfonate [Example 26]”, for which, in series [2] (5kPEG-CFZ compound example 26, 25° C. (8 h), 4° C. (in 1 week) and −70° C. (in 2 weeks)), the “main API peak loss (Table 6)” value is reported as “minimal main API peak loss”. For the same compound, the “main API peak loss, 4° C. Loss per 1 week” value in series [2] (A5Su formulation, API at 20 mg/mL, storage at 4° C.) is on record as 0.0. In series [2] (A5Su formulation, API at 20 mg/mL, storage at 25° C.), the “main API peak loss, 25° C. loss per 8 hr” value was determined as 0.0. Besides, the “main API peak loss, −70° C. loss per 2 weeks” value in series [2] (A5Su formulation, API at 20 mg/mL, storage at −70° C.) was found to be 0.0.
Take `CC(C)C[C@H](NC(=O)[C@H](CCc1ccccc1)NC(=O)CN1CCOCC1)C(=O)N[C@@H](Cc1ccccc1)C(=O)N[C@@H](CC(C)C)C(=O)[C@@]1(C)CO1` [Carfilzomib]: the half-life in-vivo in series [3] was not above 1 h.
